Assay results as given in patent US20250152742A1, “COMPOSITIONS AND METHODS FOR NEUROLOGICAL DISEASES” (Trames Bio, Inc., priority 2022, published 2025).

System: engineered chimeric receptor SEQ ID NO: 33 and its mutants (human α7-nAChR ligand binding domain / human GlyRα1 ion pore domain) in Lenti-X 293T cells
Test: YFP fluorescence quenching anion reporter plate reader assay (percent quench, EC50)
Type: cell-based
Details: for YFP fluorescence quenching using CNL001 (percent quench): receptor named in row; for YFP fluorescence quenching using Facinicline, 30 nM fac: ligand Facinicline 30 nM; for YFP fluorescence quenching using Facinicline, 300 nM fac: ligand Facinicline 300 nM; for YFP fluorescence quenching using Facinicline, 30 uM fac: ligand Facinicline 30 uM; for YFP fluorescence quenching using TC-6987, 1 uM tc6987: ligand TC-6987 1 uM; for YFP fluorescence quenching using TC-6987, 10 uM tc6987: ligand TC-6987 10 uM; for YFP fluorescence quenching using TC-6987, 500 uM tc6987: ligand TC-6987 500 uM; for YFP fluorescence quenching using Varenicline, 3 nM var: ligand Varenicline 3 nM; for YFP fluorescence quenching using Varenicline, 30 nM var: ligand Varenicline 30 nM; for YFP fluorescence quenching using Varenicline, 300 nM var: ligand Varenicline 300 nM; for YFP fluorescence quenching using Varenicline, 500 nM var: ligand Varenicline 500 nM; for YFP fluorescence quenching using Varenicline, 1 uM var: ligand Varenicline 1 uM
Excerpt: To screen these mutant LGICs for those having novel response profiles to ligands, an anion reporter assay was developed to assess the function of the LGICs in a high throughput format. In this assay, cells expressing a YFP reporter whose fluorescence is quenched in the presence of anion are transfected with DNA encoding the channel of interest. Upon exposure to ligand, channels that are activated will flux anion, resulting in a dose-dependent quench of the YFP that can be detected on a plate reader. The greater the quench signal (i.e., the more positive the value), the higher the ligand activity on the receptor is.
Lenti-X 293T cells (LX293T, Clontech) were maintained in DMEM containing 10% FBS and 1% penicillin/streptomycin (Invitrogen). […] Two days before assay, cells were split at a density of 20,000 cells/well in a 96-well tissue culture plate coated with poly-d lysine (Thermo Scientific). The next day, the cells were transiently transfected with 0.1 μg of DNA per well using standard Fugene protocol (Promega). On the day of assay, cells were washed 2 times in 1X extracellular solution (1X ECS: 140 mM NaCl, 5 mM KCl, 1 mM MgCl2, 2 mM CaCl2, 10 mM HEPES, 10 mM glucose, pH 7.2, mOsms 300). After the last wash, 100 μL of 1X ECS was added to the wells and the plate was incubated at 37° C. for 30 min. While incubating the plate, the drugs were diluted to a 2X concentration in 1X ECS-Nal (same components as 1X ECS except the 140 mM NaCl was replaced by 140 mM Nal). The plates were then read on a Flexstation3 (Molecular Devices). Each well, 8 wells at a time, of the plate is read for 2 min using a Flexstation3 (Molecular Devices) as follows: 1) a baseline YFP fluorescence is read for 17 sec, 2) 100 μL of ligand is added, and 3) the changes in YFP fluorescence are then measured every 1.3 sec for 1 minute and 43 seconds. The percent quench is calculated from the average fluorescence of the last 10 seconds of the read divided by the baseline average of the first 15 seconds prior to the ligand addition.
FIGS. 1A-1J provide heat maps of the percent quench of YFP fluorescence following stimulation by various doses of either acetylcholine or the non-native ligand as indicated in the Figures. CODA71 (SEQ ID NO: 33) was used as a control, and CODA75 (SEQ ID NO: 29, a non-responding chimeric engineered receptor) was used as the negative control. Quenching of the fluorescence signal, as indicated by blue shaded cells, indicate the level of engineered receptor activation by the non-native ligand at that concentration.

[1] = 1 nM CNL001, first column so headed
[2] = 1 nM CNL001, second column so headed
[3] = 3 nM brd (TC-5619/Bradanicline)
[4] = 10 nM CNL001, first column so headed
[5] = 10 nM CNL001, second column so headed
[6] = 30 nM brd (TC-5619/Bradanicline)
[7] = 50 nM CNL001, first column so headed
[8] = 50 nM CNL001, second column so headed
[9] = 100 nM CNL001, first column so headed
[10] = 100 nM CNL001, second column so headed
[11] = 300 nM brd (TC-5619/Bradanicline)
[12] = 1 uM CNL001, first column so headed
[13] = 1 uM CNL001, second column so headed

B1: CODA238: engineered receptor: R101W in SEQ ID NO: 33 (protein)
chain: MRCSPGGVWLALAASLLHVSLQGEFQRKLYKELVKNYNPLERPVANDSQPLTVYFSLSLLQIMDVDEKNQVLTTNIWLQMSWTDHYLQWNVSEYPGVKTVWFPDGQIWKPDILLYNSADERFDATFHTNVLVNSSGHCQYLPPGIFKSSCPMDLKNFPMDVQTCKLKFGSWSYGGWSLDLQMQEADISGYIPNGEWDLVGIPGKRSERFYECCKEPYPDVTFTVTMRRRMGYYLIQMYIPSLLIVILSWISFWINMDAAPARVGLGITTVLTMTTQSSGSRASLPKVSYVKAIDIWMAVCLLFVFSALLEYAAVNFVSRQHKELLRFRRKRRHHKSPMLNLFQEDEAGEGRFNFSAYGMGPACLQAKDGISVKGANNSNTTNPPPAPSKSPEEMRKLFIQRAKKIDKISRIGFPMAFLIFNMFYWIIYKIVRREDVHNQ
modifications: synthetic sequence of chimeric LGIC
YFP fluorescence quenching using CNL001 (percent quench) [1]: 32.42% | YFP fluorescence quenching using CNL001 (percent quench) [2]: 54.768% | YFP fluorescence quenching using TC-5619/Bradanicline (percent quench) [3]: 74.7% | YFP fluorescence quenching using CNL001 (percent quench) [4]: 75.149% | YFP fluorescence quenching using CNL001 (percent quench) [5]: 75.339% | YFP fluorescence quenching using TC-5619/Bradanicline (percent quench) [6]: 76.78% | YFP fluorescence quenching using CNL001 (percent quench) [7]: 75.881% | YFP fluorescence quenching using CNL001 (percent quench) [8]: 77.844% | YFP fluorescence quenching using ABT-126 (percent quench) (50 nM abt (ABT-126)): −14.97% | YFP fluorescence quenching using CNL001 (percent quench) [9]: 78% | YFP fluorescence quenching using CNL001 (percent quench) [10]: 78.575% | YFP fluorescence quenching (percent quench) (100 nM CNL002): 2.95% | YFP fluorescence quenching using ABT-126 (percent quench) (100 nM abt (ABT-126)): −14.66% | YFP fluorescence quenching using AZD-0328 (percent quench) (100 nM azd0328): 22.94% | YFP fluorescence quenching using ABT-126 (percent quench) (300 nM abt (ABT-126)): −16.35% | YFP fluorescence quenching using AZD-0328 (percent quench) (300 nM azd0328): 75.38% | YFP fluorescence quenching using TC-5619/Bradanicline (percent quench) [11]: 77.01% | YFP fluorescence quenching using CNL001 (percent quench) [12]: 81.126% | YFP fluorescence quenching using CNL001 (percent quench) [13]: 79.482% | YFP fluorescence quenching (percent quench) (1 uM CNL002): 67.93% | YFP fluorescence quenching using ABT-126 (percent quench) (1 uM abt (ABT-126)): 50.02% | YFP fluorescence quenching (percent quench) (10 uM ach (acetylcholine)): −16.58% | YFP fluorescence quenching (percent quench) (30 uM CNL002): 73.02% | YFP fluorescence quenching using AZD-0328 (percent quench) (30 uM azd0328): 81.8% | YFP fluorescence quenching (percent quench) (100 uM ach (acetylcholine)): 75.18% | YFP fluorescence quenching (percent quench) (1 mM ach (acetylcholine)): 78.99% | YFP fluorescence quenching (percent quench) (3 mM ach (acetylcholine)): 75.74% | YFP fluorescence quenching using Facinicline, 30 nM fac: −19.61 | YFP fluorescence quenching using Facinicline, 300 nM fac: 76.54 | YFP fluorescence quenching using Facinicline, 30 uM fac: 87.94 | YFP fluorescence quenching using TC-6987, 1 uM tc6987: 72.47 | YFP fluorescence quenching using TC-6987, 10 uM tc6987: 72.04 | YFP fluorescence quenching using TC-6987, 500 uM tc6987: 76.56 | YFP fluorescence quenching using Varenicline, 3 nM var (first column): 17.896 | YFP fluorescence quenching using Varenicline, 3 nM var (second column): 12.564 | YFP fluorescence quenching using Varenicline, 30 nM var (first column): 16.263 | YFP fluorescence quenching using Varenicline, 30 nM var (second column): 22.117 | YFP fluorescence quenching using Varenicline, 300 nM var (first column): 77.492 | YFP fluorescence quenching using Varenicline, 300 nM var (second column): 79.056 | YFP fluorescence quenching using Varenicline, 500 nM var (first column): 80.186 | YFP fluorescence quenching using Varenicline, 500 nM var (second column): 80.065 | YFP fluorescence quenching using Varenicline, 1 uM var (first column): 81.263 | YFP fluorescence quenching using Varenicline, 1 uM var (second column): 80.702

B2: CODA282: engineered receptor: Y115D in SEQ ID NO: 33 (protein)
chain: MRCSPGGVWLALAASLLHVSLQGEFQRKLYKELVKNYNPLERPVANDSQPLTVYFSLSLLQIMDVDEKNQVLTTNIWLQMSWTDHYLQWNVSEYPGVKTVRFPDGQIWKPDILLDNSADERFDATFHTNVLVNSSGHCQYLPPGIFKSSCPMDLKNFPMDVQTCKLKFGSWSYGGWSLDLQMQEADISGYIPNGEWDLVGIPGKRSERFYECCKEPYPDVTFTVTMRRRMGYYLIQMYIPSLLIVILSWISFWINMDAAPARVGLGITTVLTMTTQSSGSRASLPKVSYVKAIDIWMAVCLLFVFSALLEYAAVNFVSRQHKELLRFRRKRRHHKSPMLNLFQEDEAGEGRFNFSAYGMGPACLQAKDGISVKGANNSNTTNPPPAPSKSPEEMRKLFIQRAKKIDKISRIGFPMAFLIFNMFYWIIYKIVRREDVHNQ
modifications: synthetic sequence of chimeric LGIC
YFP fluorescence quenching using CNL001 (percent quench) [1]: −15.837% | YFP fluorescence quenching using CNL001 (percent quench) [2]: −6.519% | YFP fluorescence quenching using TC-5619/Bradanicline (percent quench) (1 nM brd (TC-5619/Bradanicline)): −0.54% | YFP fluorescence quenching using TC-5619/Bradanicline (percent quench) [3]: −7.22% | YFP fluorescence quenching using CNL001 (percent quench) [4]: −4.862% | YFP fluorescence quenching using CNL001 (percent quench) [5]: −8.244% | YFP fluorescence quenching using TC-5619/Bradanicline (percent quench) (10 nM brd (TC-5619/Bradanicline)): −2.82% | YFP fluorescence quenching using TC-6683 (percent quench) (30 nM TC-6683): 0.365% | YFP fluorescence quenching using TC-5619/Bradanicline (percent quench) [6]: −16.67% | YFP fluorescence quenching using CNL001 (percent quench) [7]: −3.807% | YFP fluorescence quenching using CNL001 (percent quench) [8]: −2.871% | YFP fluorescence quenching using ABT-126 (percent quench) (50 nM abt (ABT-126)): −21.22% | YFP fluorescence quenching using CNL001 (percent quench) [9]: −7.924% | YFP fluorescence quenching using CNL001 (percent quench) [10]: 2.11% | YFP fluorescence quenching (percent quench) (100 nM CNL002): −9.7% | YFP fluorescence quenching using ABT-126 (percent quench) (100 nM abt (ABT-126)): −19.7% | YFP fluorescence quenching using AZD-0328 (percent quench) (100 nM azd0328): 3.19% | YFP fluorescence quenching using TC-5619/Bradanicline (percent quench) (100 nM brd (TC-5619/Bradanicline)): −0.02% | YFP fluorescence quenching using TC-6683 (percent quench) (300 nM TC-6683): −6.865% | YFP fluorescence quenching using ABT-126 (percent quench) (300 nM abt (ABT-126)): −15.55% | YFP fluorescence quenching using AZD-0328 (percent quench) (300 nM azd0328): 4.79% | YFP fluorescence quenching using TC-5619/Bradanicline (percent quench) [11]: −12.37% | YFP fluorescence quenching using CNL001 (percent quench) [12]: 11.047% | YFP fluorescence quenching using CNL001 (percent quench) [13]: 8.04% | YFP fluorescence quenching (percent quench) (1 uM CNL002): −8.37% | YFP fluorescence quenching using ABT-126 (percent quench) (1 uM abt (ABT-126)): −14.31% | YFP fluorescence quenching using TC-5619/Bradanicline (percent quench) (1 uM brd (TC-5619/Bradanicline)): 31.23% | YFP fluorescence quenching using TC-6683 (percent quench) (3 uM TC-6683): −4.927% | YFP fluorescence quenching (percent quench) (10 uM ach (acetylcholine)): 6.81% | YFP fluorescence quenching (percent quench) (30 uM CNL002): 3.4% | YFP fluorescence quenching using TC-6683 (percent quench) (30 uM TC-6683): −11.259% | YFP fluorescence quenching using AZD-0328 (percent quench) (30 uM azd0328): 76.78% | YFP fluorescence quenching using TC-6683 (percent quench) (100 uM TC-6683): −11.894% | YFP fluorescence quenching (percent quench) (100 uM ach (acetylcholine)): 1.19% | YFP fluorescence quenching (percent quench) (1 mM ach (acetylcholine)): −14.05% | YFP fluorescence quenching (percent quench) (3 mM ach (acetylcholine)): 2.37% | YFP fluorescence quenching using Facinicline, 30 nM fac: 10.17 | YFP fluorescence quenching using Facinicline, 100 nM fac (ligand Facinicline 100 nM): 24.77 | YFP fluorescence quenching using Facinicline, 300 nM fac: 51.04 | YFP fluorescence quenching using Facinicline, 10 uM fac (ligand Facinicline 10 uM): 79.76 | YFP fluorescence quenching using Facinicline, 30 uM fac: 81.7 | YFP fluorescence quenching using TC-6987, 1 uM tc6987: 13.01 | YFP fluorescence quenching using TC-6987, 10 uM tc6987: 14.73 | YFP fluorescence quenching using TC-6987, 500 uM tc6987: 14.29 | YFP fluorescence quenching using Varenicline, 3 nM var (first column): 2.111 | YFP fluorescence quenching using Varenicline, 3 nM var (second column): −12.265 | YFP fluorescence quenching using Varenicline, 30 nM var (first column): −4.433 | YFP fluorescence quenching using Varenicline, 30 nM var (second column): −6.153 | YFP fluorescence quenching using Varenicline, 300 nM var (first column): −0.861 | YFP fluorescence quenching using Varenicline, 300 nM var (second column): −1.308 | YFP fluorescence quenching using Varenicline, 500 nM var (first column): 0.733 | YFP fluorescence quenching using Varenicline, 500 nM var (second column): −4.633 | YFP fluorescence quenching using Varenicline, 1 uM var (first column): −4.512 | YFP fluorescence quenching using Varenicline, 1 uM var (second column): 0.02
